Measurements reported in publication PMC7325057.

Tested on: CC(=O)N(O)CCCC[C@H](N)C(=O)O
Assay: purified protein
Conditions: 2 mM citrate, 2 mM ATP, 15 mM MgCl2, pH 7.5, 37 °C, apparent

Substance: hvKP IucA (Klebsiella pneumoniae subsp. pneumoniae)
- Km: 0.79 ± 0.02 mM
- kcat: 0.85 ± 0.02 s⁻¹
- kcat/Km: 1080 M⁻¹ s⁻¹
